In patent US20180360879A1 (CANCURE, published 2018):

Biological target: T1, murine 4-1BBL expressed on the surface of B16-F10 and B16-F10/4-1BBL melanoma cells (mouse, UniProt P41274 1-309)
T1 construct: whole, on cells; also called 4-1BB ligand; mouse 4-1BBL
T1 sequence (looked up): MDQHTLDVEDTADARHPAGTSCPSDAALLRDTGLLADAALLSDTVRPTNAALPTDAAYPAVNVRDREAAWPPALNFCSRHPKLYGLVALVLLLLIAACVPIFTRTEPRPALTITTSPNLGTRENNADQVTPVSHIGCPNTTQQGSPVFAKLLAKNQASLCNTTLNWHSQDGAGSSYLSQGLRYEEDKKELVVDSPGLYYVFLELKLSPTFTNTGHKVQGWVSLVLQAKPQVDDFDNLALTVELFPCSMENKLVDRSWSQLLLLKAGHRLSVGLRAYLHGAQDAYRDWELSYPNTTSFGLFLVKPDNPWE
Test: flow cytometry; cells incubated with the chimera, detected with PE-conjugated IgG Fcγ Ab
Experimental: FIG. 2. B16-F10-4-1BBL cells express functional 4-1BBL binding to 4-1BB. Cells were incubated with 41BB/TNFRSF9/Fc chimera and stained using a PE-conjugated IgG Fcγ Ab to detect binding to 4-1BBL, measured using the FACSCalibur flow cytometer. The black and the green histograms represent the unstained control samples of B16-F10 and B16-F10-4/1BBL sorted cells respectively. The red and the purple histograms show the B16-F10 and B16-F10/4-1BBL cells respectively stained only with the IgG Fcγ PE secondary Ab. The blue histogram represents the B16-F10 cells incubated with the 4-1BB/TNFRSF9/Fc Chimera and stained with the IgG Fcγ PE secondary Ab. The maroon histogram depicts populations of cells further subjected to sorting for 4-1BBL, re-expanded in culture before immunostaining with the 41BB/TNFRSF9/Fc chimera and the IgG Fcγ PE secondary Ab
To further test that the 4-1BBL expressed on the B16-F10/4-1BBL cells was intact and functional, an additional assay was performed for the binding of 4-1BBL on the cells to its receptor, 4-1BB. […]
Transfection efficiency was determined by staining B16-F10 sublines with antibodies to detect the cell surface markers, B7.1 and 4-1BBL. […] The presence of both of these cell surface molecules were detected using either flow cytometer. […]

binding result: binds
B1: recombinant mouse 4-1BB/Fc chimera (Fc fusion, UniProt P20334 24-187, looked up)
chain: VQNSCDNCQPGTFCRKYNPVCKSCPPSTFSSIGGQPNCNICRVCAGYFRFKKFCSSTHNAECECIEGFHCLGPQCTRCEKDCRPGQELTKQGCKTCSLGTFNDQNGTGVCRPWTNCSLDGRSVLKTGTTEKDVVCGPPVVSFSPSTTISVTPEGGPGGHSLQVL
notes: Bought reagent; It calls it a 'primary antibody', but it is the receptor 4-1BB fused to Fc; also called 4-1BB/TNFRSF9/Fc Chimera; 41BB/TNFRSF9/Fc chimera; not shown: Fc part of the chimera
